Experimental data as given in US20050010028A1 (KEIO UNIVERSITY, published 2005).
One block for each binder: values may come before it.

B1: Rhodamine green-labeled c-Fos (other, UniProt P01101 118-211, looked up)
chain: GRAQSIGRRGKVEQLSPEEEEKRRIRRERNKMAAAKCRNRRRELTDTLQAETDQLEDEKSALQTEIANLLKEKEKLEFILAAHRPACKIPDDLG
modifications: C-terminus joined through puromycin to a rhodamine green modifying agent that also carries biotin or iminobiotin (Modifying agent 22 or 23; which one in the FCCS sample is not stated)
notes: also called Rh-Fos; rhodamine green-modified c-fos; not shown: T7 tag at the N-terminus; C-terminal polyhistidine tag

How the values were obtained:
[1] = target: T1, Cy5-labeled c-Jun (mouse, UniProt P05627 216-318, C-terminus joined through puromycin to a Cy5 modifying agent that also carries biotin or iminobiotin (Modifying agents 24-26; Modifying agent 25 in FIGS. 14 and 15; the agent used in the FCCS sample …); assay: fluorescence cross-correlation spectroscopy in solution, 10 nM each of the two labelled proteins and AP-1 double-stranded DNA
T1 construct: also called Cy5-Jun; Cy5-modified c-Jun; not shown: T7 tag at the N-terminus; C-terminal polyhistidine tag
Experimental: (§1) Intermolecular interactions were analyzed by fluorescence cross-correlation spectroscopy using fluorescence-labeled c-Fos and c-Jun as well as AP-1 sequence double-stranded DNA. DNA and the modified proteins (at a final concentration of 10 nM each) were mixed. 10 μl of this sample was applied to an 8-well glass chamber (Nunc), and fluorescence cross-correlations were measured by using a fluorescence correlation spectrometer, ConfoCor2 (Car1 Zeiss). […] Based on the above, it was confirmed that proteins labeled with fluorescence according to the present invention could be used to detect protein interactions by using a fluorescence cross-correlation spectroscopy and further could be utilized for convenient and quick measurement of dissociation constant.

[2] = target: B1; assay: fluorescence cross-correlation spectroscopy in solution, Cy5-Fos + Rh-Fos + AP-1 DNA
Experimental: as §1

[3] = target: T2, Fos modified with TAMRA-dC-puromycin (Modifying agent 19) (mouse, UniProt P01101 118-211, C-terminus joined to TAMRA-dC-puromycin (Modifying agent 19)); assay: protein microarray: STA-Fos on a biotin plate, labelled Fos in solution, fluorescence scan
T2 construct: also called C-terminal fluorescence-labeled Fos; Fos protein having 12 His tags

T1 sequence (P05627 216-318): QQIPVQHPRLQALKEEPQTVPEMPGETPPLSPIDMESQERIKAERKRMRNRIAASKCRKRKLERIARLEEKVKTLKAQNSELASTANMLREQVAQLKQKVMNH

Binder: B1
Kd [1]: ~10 nM

binding result [2]: no binding (tested: 10 nM each)
B2: Cy5-labeled c-Fos (other, UniProt P01101 118-211, looked up)
chain: GRAQSIGRRGKVEQLSPEEEEKRRIRRERNKMAAAKCRNRRRELTDTLQAETDQLEDEKSALQTEIANLLKEKEKLEFILAAHRPACKIPDDLG
modifications: C-terminus joined through puromycin to a Cy5 modifying agent that also carries biotin or iminobiotin (Modifying agents 24-26; Modifying agent 25 in FIGS. 14 and 15; the agent used in the FCCS sample is not stated)
notes: also called Cy5-Fos; not shown: T7 tag at the N-terminus; C-terminal polyhistidine tag

binding result [3]: no binding
B3: streptavidin-fused Fos protein (other, UniProt P01101 118-211, looked up)
chain: GRAQSIGRRGKVEQLSPEEEEKRRIRRERNKMAAAKCRNRRRELTDTLQAETDQLEDEKSALQTEIANLLKEKEKLEFILAAHRPACKIPDDLG
notes: From plasmid pSP6-STA-Fos (pET20b backbone), spotted as translation solution on a biotin-coated slide; also called STA-Fos; STA-Fos(F); not shown: T7 tag at the N-terminus of streptavidin; streptavidin, gene amplified from the Streptomyces avidinii genome
